Numbered stars: 1 amine (or outer) side, 2 acyl side, 3 side chain; on linkers, the order of the positions; unused ones are H or OH. Bridge positions count the residues as written; N and C are the ends. Square brackets hold non-standard residues; d marks the D form. Primed or numbered codes have the meaning given here. * marks the point of attachment. Ttds″ = 1,13-diamino-4,7,10-trioxatridecan-succinamic acid spacer, O=C(CCC(=O)[*:2])NCCCOCCOCCOCCCN[*:1]; DOTA = O=C(O)CN1CCN(CC(=O)O)CCN(CC(=O)*)CCN(CC(=O)O)CC1; mXylylene = c1cc(C[*:1])cc(C[*:2])c1; NMeF = CN[C@@H](Cc1ccccc1)C(=O)O; Hexanoyl = CCCCCC(=O)*
Tests used:
[1] = molecular target: Recombinant human FAP (R&D systems, #3715-SE) (human, UniProt Q12884 26-760); assay: cell-based or functional assay
[2] = molecular target: T1, fibroblast activation protein (FAP) on FAP-expressing human WI-38 fibroblasts (human, UniProt Q12884 1-760); assay: competitive FACS, WI-38 cells, vs Cy5 tracer m3; A = pIC50 >8.0
T1 construct: also called human FAP

Binder	pIC50 Category (Activity) [1] [pIC50]	pIC50 Category (FACS) [2] [pIC50]
Hexanoyl-CPPTEFCDH[NMeF]R[Ttds″]K(DOTA)-NH2 (linker 1-7 via mXylylene; SMILES CCCCCC(=O)N[C@H]1CSCc2cccc(c2)CSC[C@@H](C(=O)N[C@@H](CC(=O)O)C(=O)N[C@@H](Cc2c[nH]cn2)C(=O)N(C)[C@@H](Cc2ccccc2)C(=O)N[C@@H](CCCNC(=N)N)C(=O)NCCCOCCOCCOCCCNC(=O)CCC(=O)N[C@@H](CCCCNC(=O)CN2CCN(CC(=O)O)CCN(CC(=O)O)CCN(CC(=O)O)CC2)C(N)=O)NC(=O)[C@H](Cc2ccccc2)NC(=O)[C@H](CCC(=O)O)NC(=O)[C@H]([C@@H](C)O)NC(=O)[C@@H]2CCCN2C(=O)[C@@H]2CCCN2C1=O, also called 3BP-3275) [Hex-[Cys(3MeBn)-Pro-Pro-Thr-Glu-Phe-Cys]-Asp-His-Nmf-Arg-Ttds-Lys(DOTA)-NH2]	> 8	> 8
Ac-MCPPTEFCDHFR[dD]-NH2 (linker 2-8 via mXylylene; SMILES CSCC[C@H](NC(C)=O)C(=O)N[C@H]1CSCc2cccc(c2)CSC[C@@H](C(=O)N[C@@H](CC(=O)O)C(=O)N[C@@H](Cc2c[nH]cn2)C(=O)N[C@@H](Cc2ccccc2)C(=O)N[C@@H](CCCNC(=N)N)C(=O)N[C@H](CC(=O)O)C(N)=O)NC(=O)[C@H](Cc2ccccc2)NC(=O)[C@H](CCC(=O)O)NC(=O)[C@H]([C@@H](C)O)NC(=O)[C@@H]2CCCN2C(=O)[C@@H]2CCCN2C1=O, also called 3BP-3213) [Ac-Met-[Cys(3MeBn)-Pro-Pro-Thr-Glu-Phe-Cys]-Asp-His-Phe-Arg-asp-NH2]	> 8	> 8
Ac-MCPPTEFCDHF[dR]D-NH2 (linker 2-8 via mXylylene; SMILES CSCC[C@H](NC(C)=O)C(=O)N[C@H]1CSCc2cccc(c2)CSC[C@@H](C(=O)N[C@@H](CC(=O)O)C(=O)N[C@@H](Cc2c[nH]cn2)C(=O)N[C@@H](Cc2ccccc2)C(=O)N[C@H](CCCNC(=N)N)C(=O)N[C@@H](CC(=O)O)C(N)=O)NC(=O)[C@H](Cc2ccccc2)NC(=O)[C@H](CCC(=O)O)NC(=O)[C@H]([C@@H](C)O)NC(=O)[C@@H]2CCCN2C(=O)[C@@H]2CCCN2C1=O, also called 3BP-3212) [Ac-Met-[Cys(3MeBn)-Pro-Pro-Thr-Glu-Phe-Cys]-Asp-His-Phe-arg-Asp-NH2]	> 8	> 8

The remaining lines, values ahead:

pIC50 Category (Activity) [1] [pIC50]	pIC50 Category (FACS) [2] [pIC50]	Binder
> 8	> 8	Ac-MCPPTEFCDH[dF]RD-NH2 (linker 2-8 via mXylylene; SMILES CSCC[C@H](NC(C)=O)C(=O)N[C@H]1CSCc2cccc(c2)CSC[C@@H](C(=O)N[C@@H](CC(=O)O)C(=O)N[C@@H](Cc2c[nH]cn2)C(=O)N[C@H](Cc2ccccc2)C(=O)N[C@@H](CCCNC(=N)N)C(=O)N[C@@H](CC(=O)O)C(N)=O)NC(=O)[C@H](Cc2ccccc2)NC(=O)[C@H](CCC(=O)O)NC(=O)[C@H]([C@@H](C)O)NC(=O)[C@@H]2CCCN2C(=O)[C@@H]2CCCN2C1=O, also called 3BP-3211) [Ac-Met-[Cys(3MeBn)-Pro-Pro-Thr-Glu-Phe-Cys]-Asp-His-phe-Arg-Asp-NH2]
> 8	> 8	Ac-MCPPTEFCD[dH]FRD-NH2 (linker 2-8 via mXylylene; SMILES CSCC[C@H](NC(C)=O)C(=O)N[C@H]1CSCc2cccc(c2)CSC[C@@H](C(=O)N[C@@H](CC(=O)O)C(=O)N[C@H](Cc2c[nH]cn2)C(=O)N[C@@H](Cc2ccccc2)C(=O)N[C@@H](CCCNC(=N)N)C(=O)N[C@@H](CC(=O)O)C(N)=O)NC(=O)[C@H](Cc2ccccc2)NC(=O)[C@H](CCC(=O)O)NC(=O)[C@H]([C@@H](C)O)NC(=O)[C@@H]2CCCN2C(=O)[C@@H]2CCCN2C1=O, also called 3BP-3210) [Ac-Met-[Cys(3MeBn)-Pro-Pro-Thr-Glu-Phe-Cys]-Asp-his-Phe-Arg-Asp-NH2]

Reference: patent publication US20230212549A1 (3B PHARMACEUTICALS, published 2023)
